For one substance, Kd results are on record in article PMC8686072.

pKd: −log10 of the molar value.

The target in the experiment is DCLK1 KD (DCLK1 kinase domain lacking the inhibitory C-terminal tail) (human) (UniProt O15075). Description: SPR. For orientation: In SPR one partner is held on a chip, and binding of the other changes the refractive index at the surface.
Chain of UniProt O15075 (O15075 390-647): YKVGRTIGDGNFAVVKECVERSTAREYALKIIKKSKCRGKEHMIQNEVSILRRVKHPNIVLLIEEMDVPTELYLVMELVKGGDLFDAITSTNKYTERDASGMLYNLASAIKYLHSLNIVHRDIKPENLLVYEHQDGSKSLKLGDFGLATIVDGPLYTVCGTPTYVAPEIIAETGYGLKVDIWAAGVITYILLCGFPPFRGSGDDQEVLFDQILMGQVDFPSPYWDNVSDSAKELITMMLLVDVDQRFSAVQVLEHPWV

With “DCLK1 AID peptide (C-terminal autoinhibitory domain of DCLK1 isoform 2)”, the negative logarithm of the Kd (pKd) (commonly the Kd on a negative log10 scale, so that one unit is a factor of ten) was 3.81.
